Source: the nanobody polyreactivity screen of Harvey et al. (2022)

Experiment: yeast display, Sf9 membrane polyspecificity reagent, FACS + sequencing; frameworks hold sequencing errors
In short: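 Galactose-induced (36–48 hours) yeast carrying a synthetic nanobody display library were exposed to 10% biotinylated, detergent-solubilized Sf9 membrane reagent at 4 °C for 1 hour. FACS followed streptavidin microbead enrichment, using low and high (top ~1%) gates for expression (anti-HA) and reagent binding (streptavidin). Colony PCR, MiSeq 2 × 250 sequencing and CDR-length filtering followed. Labels for polyreactivity reflect the gate of origin.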

Row | Sequence | polyreactivity (PSR sort gate)
1 | QVQLVESGGGLVQAGGSLRLSCAASGIIFYVYAMGWYRQAPGKERELVAAISTSGGSTYYADSVKGRFTISRDNAKNTVYLQMNSLKPEDTAVYYCAADRPARSPKGSVDYWGQGTQVTVSS | high polyreactivity
2 | QVQLVESGGGLVQAGGSLRLSCAASGRIFVYNAMGWYRQAPGKERELVAAISGGGSTYYADSVKGRFTISRDNAKNTVYLQMNSLKPEDTAVYYCNTVFSGYARGWFQPAYNYWGQGTQVTVSS | high polyreactivity
3 | QVQLVESGGGLVQAGGSLRLSCAASGSIFTSNAMGWYRQAPGKERELVAAISWSGTSTYYADSVKGRFTISRDNAKNTVYLQMNSLKPEDTAVYYCNADTNYWEDDYWGQGTQVTVSS | low polyreactivity
4 | QVQLVESGGGLVQAGVSLRLICAATGSIFWRKTKGWYRQAPGKEREFVAAISTSGSTYYADSVKGRFTISRDNAKNTVYLKMNSLKPEDTAVYYCAADASRGYQREGGYWGQGTQVTVSS | high polyreactivity
5 | QVQLVESGGGLVQAGGILRLSCAASGRTFKYYAMGWYRQAPGKERELVATITWSGTSTNFADSVKGRFTISRDNAKNTVYLQMNSLKPEDTAVYYCAARSKRRNYDYWGQGTQVTVSS | high polyreactivity
6 | QVQLLESGGGLVQAGGSLRLSCAASGSTFRSYAMGWYRQATGKERELVAAISGRGGNTYYADSVKGRFTISRDNAKNTVYLQMNSLKPEDTAVYYCARKTVYYGSDYWGQGTQVTVSS | high polyreactivity
7 | QVQLVESGGGLVQAGGSLRFTCAASGRTFIGYAMGWYRHAPGKERELVATISVSGGSTYYADSVKGRYTISRDNAKKTVYLHMNSLKPEDTAVYYCAKAYLRYYDGPYDYWGQGTQVTLSS | low polyreactivity
8 | QVQLVESGGGLVQAGGSLRLSCAASGSIFVGNAMGLYRQAPGKERELVAAISSSGGRTFYADSVKGRFTISRDIAKNSVYLQMNSLKPEDTAVYYCAAYLWSYVFNLYEYWGQGTQVTVSS | high polyreactivity
9 | QVQLVESGGGLVQAGGSLRLSCAASGSTFVNNAMGWYRQAPGTERELVAAIRSSDGRTYYADSVKGRFTISRDNAKNTVYLQMNSLKPEDTAVYYCATAVGTKYRTRIFEYYYWGQGTQVTVSS | high polyreactivity
10 | QVQLVESAAGLVQAGGSLRLSCAPSGSTFYLYDMGWYRQAPGKEREFVATITSGTSTTYADSVKGRFTISRDNAKNTVYLQMNSLKPEDTAVYYCNATDVGIITVGYGHGGYYWGQGTQVTVSS | low polyreactivity
11 | QVQLVESGGGLVQAGGSLRLSCAASGFTIYRYAMGWYRQAPGKERELVASITWSGGSTYYADSVKGRFTISRDNAKNTVYLQMNSLKPEDTAVYYCNALFSWGTGYGSSYGYWGQGTQVTVSS | high polyreactivity
12 | QVQLVETGGGLVQAGGSLRLSCAASGSTFHGYAMGWYRQEPGKERELVAAITSGDSTNYADSVKGRFTISRDNAKNTVYLQMNSLKPEDTAVYYCNAEGSSVLTGYWGYPPYWDTYDYWGQGTQVTVSS | low polyreactivity
13 | QVQLVESGGGLVQAGGSLRLSCAASGIIFDGYAMGWYRQAPGKERELVAAISRRGGSTYYADSVKGRFTISRDNAKNTVYLQMNSLKPEDTAVYYCAAEYVYWRIGQYDYWGQGTQVTVSS | high polyreactivity
14 | QLQLVESGGGLVQAGGSLRLSCAASGFTFRWNGMGWYRQAPGKERELVPSISSTGGSTYYADSVKGRFTISRDNAKNTVYLQMNSLKPEDTAVYYCNAVVTYHYSVTSVGSRFDYWGQGTQVTVSS | high polyreactivity
15 | QVQLVESGGGLVQAGGSLRLSCAASGSIIYSYAMGWYRQAPGKERELVAAISTSAGTTYYADSVKGRFTISRDNAKNTVYLQMNSLKPEDTAVYYCATQVWSHKYWYYYWGQGTQVTVSS | high polyreactivity
16 | QVQLVESGGGLVQAGGSLRLSCAASGSIFQPYAMGWYRQAPGKERELVAAISSSGGSTTYADSVKGRFTISRDNAKNTVYLQMNSLKPEDTAVYYCAAQYRYYPEAYGMGYWGQGTQVTVSS | low polyreactivity
17 | QVQLVESGGGLVQAGGSLRLSCAASGSTFGWNAMGWYRQAPGKERELVAAISSSGGITYYAYSVKGRFTISRDKAKNTVSLQMNSLKPEDTAVYYCAAERDDDWGNYWGQGTQVTGSS | low polyreactivity
18 | QVQLVESGGGLVQAGGSLRLSCAASGRTFLSNAMGWYRQEPGKERELVAAINSGDSTYYAYSVKGRFTISRYNAKNTVYLQMNSLKPEDTAVYYCAAAFYYRRMYYWGKGTQVTVSS | high polyreactivity
19 | QVQHVESGGGLVQAGGSLRLSCAASGRIFPRYAMGWYGQTPGKERELVADISRSGGSTYYADSVKGRFTISRDNAKNSVYLQMNSLKPEDTAVYYCAASQYRRVKQGNYWGQGTQVTVSS | high polyreactivity
20 | QVQLVESGGGLVQAGGSLRLSCAASGSTLNYYAMGWYRQAPGKERELVAAIRSGGNTNYADSVKGRFTISRDNAKNTVYLQMNSLKPEDTAVYYCAKDESYFYDRVPLDYWGQGTQVTVSS | low polyreactivity
21 | QVQLVESGGGLVQAGGSLRLSCAASGSTFVYYDMGWYRQAPGKERELVAAISRGGGSTYYADSVKGRFTISRDNAKNTVYLQMNSLKPEDTAVYYCAAVAGYRYYWGQGTQVTVSS | high polyreactivity
22 | QVQLVESGGGLVQAGGSLRLSCAASGSTFTYNAMGWYRQAPGKERELVAAIDRSVSTNYADSVKGRFTISRDNAKNTVYLQMNSLKPEDTAVYYCNARHPTDDIVIYDYWGQGTQVTVSS | low polyreactivity

Row | Sequence | polyreactivity (PSR sort gate)
23 | QVQLVESGGGLVQAGGSLRLSCAASGSTYYYNAMGSYRQAPGKDRELVARISRSGGSTYADSVKGRFTISRDNAKNTVYLQMNSLKPEDTAVYYCNADAYGTPEFTSYAVRYDYWGQGTQVTVSS | low polyreactivity
24 | QVQLVESGGGLVQAGGSLRLSCAASGRIFFLYAMGWYRQAPGKERELVASITRRGGSTYYADSVKGRVTISRDNAKNTVYLQMTSLKPEDTAVYYCAAELYRSNVYHYDYWGQGTQVTVSS | high polyreactivity
25 | QVQLVESGGGLVQAGGSLRLSCAASGSTFSTYAMGWYRQAPGKERELVATISKRGGSTYYADSVKGRFTISRDNAKNTVYLQMNSLKAEDTAVYYCDARWQWLNGYYYWGQGTQVSVSS | high polyreactivity
26 | QVQLEESGGGLDQAGGSLRLSCAASGRIFVFYAMGWYRQAPGKERELVAAITASSTRTYFADSVKGRFTISRDNAKNTVYLQMNSLKPEDTAVYYCAADRYYWGQGTQVTVSS | low polyreactivity
27 | QVQLVDSGGGLVQAGGSLRLTCAASGSTIYWYAMGWYRQAPGKERELVAAISSSGSTKYADSVKGRFTISRDNAKNNVYLQINSLKPEDTAVYYCAADVEYDRDVPQQVYVSDDYWGQGTKVTVSS | low polyreactivity
28 | QVQLQESGGGLVQAGGSLRLSSAASGSISSRDAMGWYRQAPGKEREFVATIASGTTTYYADSVKGSFTISRDNAENTVYLQTNSLKPEDTAVYYCAAPTIQIYPFYYWGQGTQVTVSS | high polyreactivity
29 | QVQLVESGGGLVQAGGSLRLSCAASGRTFRRYAMGWYRQAPGKEREFVAAIRYSGGNTYYADSVKGRFTISRDNAKNTVYLQMNSLKPEDTAVYYCAARTYGKYRYSTYYYWGQGTQVTVSS | low polyreactivity
30 | QVQLVESGGGLVQAGGSLRLSCAASGSTFVHYDMGWYRQAPGKERELVAGSTTGGSTNYADSVKGRFTISRDNAKNTVYLQMNSLKPEDTAVYYCNADSYPNLVPDYLYYWYEYWGQGTQVTVSS | low polyreactivity
31 | QVQLVESGGGLVQAGGSLRFSCAASGTFVPYAMGWYRQAPGKEMELVARITWRGGSTYYADSVKGRFTISRDNANNTVYLQMNSLKPEETAVYYCATVSDNRYYYWGQGTQVTVSS | low polyreactivity
32 | QVQLVESGGGLVQAGGSLRLSCAASGYTFPYYTMGWYRQAPGKERELVAAISSGGRTKYADSVKGRFTISRDNAKNTVYLQMNSMKPEDTAVYYCNAVHSPAQCRSKYYPYNYWGQGTQVTVSS | high polyreactivity
33 | QVQLVESGGGLVQAGGSLRLSCAASGRTFLSYAMGWYRQAPGKERELVATITRRGGSTYYADSVKGRFTISRDNAKNTVYLQMNSLKPEDTAVYYCAAYYRQYSSSEFGYWGQGTQVTVSS | high polyreactivity
34 | QVQLQESGGGLVQAGGSLRLSCAASGCISVYTPMGWYRQAPGKERVLVAGINICANTYYADSVKGRFTISRDNAKNTLYLQMNSLKPEDTAVYYCAARRRPGGRYKSRVWYDYWGQGTQVTVSS | high polyreactivity
35 | QVQLVESGGGLVQAGGSLRLSCAASGSIFAANAMGWYRQAPGKERELVAAITRGGRTYYADSVKGRFTISRDNAKNTVYLQMNSLKPEDTAVYYCAAYVFSKREYYRYDYWGQGTQVTVSS | high polyreactivity
36 | QVQLVESGGGLVQAGGSLRLSCAASGRIFYPYAMGWYREAPGKERELVAAITVRGGRTYYADSVKGRFTFSRDNAKNTVYLQMNSLKPEDTAVYYCAARRWGAYRHGYWGQGTQVTVSS | high polyreactivity
37 | QVQLVESGGGLVQAGGSLRLSCAASGLIFVVYTMGWYRQAPGKERELVAAITGRGGSTYADSVKGRFTISRDNAKNTVYLQMNSLKPEDNAVYYCNRADYYGYRFRVYDRLDYWGQGTQVTVSS | low polyreactivity
38 | QVQLVESGGGLVQAGGSLRLSCAASGSTFGHYAMGWYRQAPGKERELVAAISWSGASTYYADSVKGRFTISRDNAKNTVYLQMNSLKPEDTAVYYCAAESYRQTYYVGDGYEDDYWGQGTQVTVSS | low polyreactivity
39 | QVQIVESGGGLVQAGGSLRLSCADSGGTFRRYAMGWYRQAPGKEREFVARIYDGGTTYYADSVKGRFTISRDNAKNTVYLQMNSLKPEDTAVYYCAAYPYSRYYYYSNYYWGQGTQVTVSS | high polyreactivity
40 | QVQLVESGGGLVQAGGSLRLSCAASGRIFYAYAMGWYRQAPGKEREFVAAISKRGGSTYYADSVKGRFTISRDNAKNTVYFQMNSLKPEDTAVYYCAADHEAIVRYDYWGQGTQVTVSS | low polyreactivity
41 | QVQLVESGGGLVQAGGSLRLSCAASGSIFEHNSMGWYSQAPGKERELGAAITISGGGTYYADSVKGRFTISRDNAKNTVYLQMNSLKPEDTAVYYCNRDKPGLVFTSYNYSSSYDYWGPGTQVTVSS | low polyreactivity
42 | QVQLVESGGGLVQAGGSLRLSCAASGSTFPYNAMGWYRQAPGKERELVAVITTVGSTYYADSVKGRFTISRDNAKNTVYLQMNSLKPEDTAVYYCAAANTQSPGYDYWGQGTQVTVSS | low polyreactivity
43 | QVQLVESVGGLVQAVGSLRLSCAASGRTFRHNAMGWYRQAHGKVRELVAAISSSGTNTHYADSVKGRFTISRDIAKNTVYLQMNSLQPEDTAVYYCAADRWGARRNQYHENGYWGQGTQVTVSS | high polyreactivity
